Assay results from the DeepSol protein solubility set.

Assay: soluble on expression in E. coli; label from the status in PepcDB or PDB records

| Sequence | soluble on expression in E. coli |
| --- | --- |
| MGFKRLLASLGAGGASVETVLTEVNVVPGGVVQGEVRIQGGSVNQAIEGLSVGLQAKVEVEGHDDQEYKQDIEFAKLSLGGAFELQAGAVHAVPFGLEIPWETPITMIDGQALRGMNIGVTTELEIARAVDSGDLDPVNVHPLPAQKAILDAFVQLGFRFKNADMERGHIRGTRQRLPFYQEIEFFPPSQYRGLNQVELSFVADDREMDVILEMDKKPGLFSEGSDSYRSFQVGLNDFQGTDWTAYLHQWLSEVGSKRSWF | not soluble |
| MAHHHHHHMGGCLISPSAEMQLEENTTSPFGHRRPIFGLFGAGEVTGGVHGGNRLGGNSLLECVVFGRIAGDRAATILQNNDTYLWGEKWSQLKLRNVMEDENGFMWLHFTFPSSFQVSGLEALQGVVLRSVSGDKSVEVYTPYTLPDDEGVVGIALSPWLTGNGVHWLRTLQPGDTVEMKAAERVERNYMNMLKAPHKVVIATSRGIAPMMQILRATMERPEKDATIHLIYIADRASSIPYREKLKALAEASPERFRCTFVLQHPQPGWSGAVNYLDEIAASVFPDPAVVIFLCGASEETRSIKSSLLDMGHDVATIATVE | not soluble |
| MASKIEQPRWASKDSAAGAASTPDEKIVLEFMDALTSNDAAKLIEYFAEDTMYQNMPLPPAYGRDAVEQTLAGLFTVMSIDAVETFHIGSSNGLVYTERVDVLRALPTGKSYNLSILGVFQLTEGKITGWRDYFDLREFEEAVDLPLRG | soluble |
| IKGSTDMDHSGFIQKFIALYGGLNKHTLHHLSEIYSYDVQFIDAVHEINGIDELTDYFTHLYTNLIECKFTIHHVIEDINLTQGEATLFWTMNYKHPKIGKGKSISVEGVSHIKFNDKVFYHRDFLDMGQMVYEHLPLIGPMVKFIKKRVQA | soluble |
| MISLPIDLVLPDLREALVNRNEVILEAPPGAGKTTRVPLALLNESWLGDQKILMLEPRRLAARAAAERLASELGEKVGEIVGYRIRLESKVGPRTKIEVVTEGILARRLQDDPALDGVGVVIFDEYHLRNLHSDLALALCLSGRDLLRDDPPLKLLLMSAT | not soluble |
| GPGSMDVYRQAAEIVGIVREGNGTAKALCLRKDMQKKKQTYAVVCETLRHYELLEDVLEVAEFFKYYPQANHEFAMCMAYDVVLGKGVNTHNDSTARAVSHSASYLREAYWQVRKHHVIPPRSSEKLDDEVAADTEGGARGKRRSGDSVSSSPSLQLPRYARVNTLKISVEELVSRLRRSAEVRKRARDAKDNDGDAAASSHPQQQNGDKRATRRASSRPHRPLPEFTQDPVVPHLLVFPPGTDLHAHPAVRSGQLILQDRASCLPAAVLLDAVPVEVIEGDTAGSSKGRKKAKGGTALGKEKGRGNETDAAARRPLEYVVDACAAPGNKTTQLAALGAPHIKIMATERDERRADLLSKRVASLGAADYVNVVSMDFFQLSSDDRAATEGILLDPSCSASGVMTRVDVALQHHHHHHHEQQRKGKARQADRRVSLLQGSRRGSHHEDADRNAAEEGQLDDGDREETANSGAINPAAQGNEFSMKEERVEKLARLQRKLLAHSLLSFDNCRTVVYSTCSVHEEENEEVVRQVLDDERVKARGWRLSNIMPNTWKTRGAEREGEEHPLRFTIRCDPATEATNGFYVARFDRVC | soluble |
| MSLSILQRLIQQAKNPRGTIGSSMLCIMNTAHTRLTNWALQKVHIKKDAIILDIGCGGGKTIHTLSKRTPLGKIYGIDYSYQAVKNSIQTNIKDVQKQKVIVQQASVSSIPYHTNFFDLITAFQTHYFWPDVEQDIKEVFRVLQPNGSFLLVAETFKIQYHMEKWKTNEELINLFYKTGFTSVKCYEERGCLCVIGTKEGHHHHHH | not soluble |
| MISVNDFRTGLTIAVDNGLWQVLDFQHVKPGKGAAFVRSKLRNLRTGSVQEKTFRAGEKVEKAHIENRRMQYLYASGEAHVFMDNGTYEQIELGEKQIERELKFLKENMEVSIMTYQGEVLGVELPNTVELQVTETEPGIKGDTASNVTKPATLETGLVVQVPIFINEGEMLIINTGEGKYVSRA | soluble |
| MGSDKIHHHHHHMIFLIFSILFLHLANCDYTPDWESLDNRPLPSWYDDSKFGIFCHWGLYSDDNDKNKKYKTRSEWMWWYWKGTQPDKDVVNFVDKNYKPGTTYADFAKDVCNILLFAIESDFCSLPQSISMRINLLKLYFVFTSKHHEGFTMWPSRTSWNWNSMDIGPKRDIVGELRDAFKKTDVHFGLYFSQFEWFHPMFLDDGKFNTTFYPEQVSYPQMIDIVTKYNPEVVWSDGEWDKSDDYWKAKEFLAWLYNSSPVKDQVVVNDRWGTGTMGKHGGFMTYSDHYDPGKLLEKKWENCMTLDKHSWGNRRDMKASEVNTAYEIIEQLARTIACNGNLLLNVGPNMHGQIPAIFEDRLEEIGRFVNITSEAIFGTRPWIHQNDTSASNVWYVEFQQLSTHVFSGILPNIHRERSH | not soluble |
| MSLRVKYFGTDGIRGIFGETLTDELAFKVGKALGEIVGEGKVIVGKDTRVSGDSLEAAISAGLTSMGVDVLLCGILPTPAVALLTRITRSFGVVISASHNPPEYNGIKVLKGGYKIPDEMEAEIEKRLENGSFLTRSVVGRTKSFREGRDMYIGAVLEMFRDLDLTGEMVSLDLANGATTTTAREVFEFLGAKVEVFNDSQDGLLINQGCGATHPRFLAEEMKNGKVGFTFDGDGDRVIAVDEERNVVNGDRIIGILAVGLKEEGRLNSDTVVGTVMTNGGLEDFLKEKGIRLLRTKVGDKYVLEKMLESGANLGGERSGHIIILDRSTTGDGLITALELMRVLKRSGRKLSDFAKEIPDYPQITKNVRRTERMSLENENLRKIVEESTSRGYRVVIRPSGTEPVIRITVEGKDREEIEKIVEEISRVLESEGHHHHHH | soluble |
| MSSERQLAGRIVVPGEPLPEEVEASPPYVIDYKGVKRATVVGLLREKGDGGGRAFVKLKEIYVPQAGDVVIGLIQSVGIMNWFVDINSPYVAVLSVQDFLGRPFNPAVDDMQSLLKVGDYIKAKVVAFDKTRSPLLTVQGEGLGRIVRGKIVEISPAKVPRVIGRKMSMLKTLEEKTECKIFVARNGRIHLECPNEDLEAIAVMAIKIIDEEAYTSGLTKRIIKFIEEERRIREV | soluble |
| MEWAMNEHHQPFEEIRHYGTEGQEFWSARELAPLLDYRDWRNFQKVLARATQACEASNQAASDHFVETTKMVVLGSGAQRELEDVHLSRYACYLVVQNGDPAKPVIAAGQTYFAIQTRRQELADDEAFKQLREDEKRLFLRNELKEHNKQLVEAAQQAAVATATDFAIFQNHGYQGLYGGLDQKAIHQLKGLKKSQKILDHMGSTELAANLFRATQTEEKLKRDGVNSKQQANTTHFDVGSKVRQTIQELGGTMPEELPTPQVSIKQLENSVKITEKK | not soluble |
| MLINEYRPGAGIGWHRDKPHFEDVAGISLLAPCSFRLRRKSGDRWERRTIVVEPRSAYLMTGPSRTEWEHSIPPLAEHRYSITLRTLRSQNPLEHHHHHH | not soluble |
| VGPEAYGEASHSHSPASGRYIQQMLDQRCQEIAAELCQSGLRKMCVPSSRIVARNAVGITHQNTLQWRCFDTASLLESNQENNGVNCVDDCGHTIPCPGGVHRQNSNHATRHEILSKLVEEGVQRFCSPYQASANKYCNDKFPGTIARRSKGFGNNVEVAWRCYEKASLLYSVYAECASNCGTTWYCPGGRRGTSTELDKRHYTEEEGIRQAIGSVDSPCSEVEVCLPKDENPPLCLDESGQISRT | soluble |
| PGAPSTVRISKNVDGIHLSWEPPTSPSGNILEYSAYLAIRTAQMQDNPSQLVFMRIYCGLKTSCTVTAGQLANAHIDYTSRPAIVFRISAKNEKGYGPATQIRWLQGNSK | soluble |
| MSTQGEIRVGPSHQAKLPDLQPFPSPDGDTVTQHEELVWMPGVNDCDLLMYLRAARSMAAFAGMCDGGSTEDGCVAASRDDTTLNALNTLHESGYDAGKALQRLVKKPVPKLIEKCWTEDEVKRFVKGLRQYGKNFFRIRKELLPNKETGELITFYYYWKKTPEAALEHHHHHH | soluble |
